Molecular target: PfCoronin^R100K/E107V-smHA (P. falciparum (Pikine isolate, SenP019.04))
Test: affinity purification with mass spectrometry

## PfActin (from UniProt Q8I4X0 1-376) (natural protein)
  fold reduction of normalised abundance against PfCoronin^WT-smHA: 3 fold
